{"source": "the DeepSol protein solubility set", "data": [{"experiment": "soluble on expression in E. coli; label from the status in PepcDB or PDB records", "values": [{"sequence": "MLNNAMSVVILAAGKGTRMYSDLPKVLHTLAGKAMVQHVIDAANELGAAHVHLVYGHGGDLLKQALKDDNLNWVLQAEQLGTGHAMQQAAPFFADDEDILMLYGDVPLISVETLQRLRDAKPQGGIGLLTVKLDDPTGYGRITRENGKVTGIVEHKDATDEQRQIQEINTGILIANGADMKRWLAKLTNNNAQGEYYITDIIALAYQEGREIVAVHPQRLSEVEGVNNRLQLSRLERVYQSEQAEKLLLAGVMLRDPARFDLRGTLTHGRDVEIDTNVIIEGNVTLGHRVKIGTGCVIKNSVIGDDCEISPYTVVEDANLAAACTIGPFARLRPGAELLEGAHVGNFVEMKKARLGKGSKAGHLTYLGDAEIGDNVNIGAGTITCNYDGANKFKTIIGDDVFVGSDTQLVAPVTVGKGATIAAGTTVTRNVGENALAISRVPQTQKEGWRRPVKKK", "soluble on expression in E. coli": "soluble"}, {"sequence": "MGSSHHHHHHSSGLVPRGSHMSKARVYADVNVLRPKEYWDYEALTVQWGEQDDYEVVRKVGRGKYSEVFEGINVNNNEKCIIKILKPVKKKKIKREIKILQNLCGGPNIVKLLDIVRDQHSKTPSLIFEYVNNTDFKVLYPTLTDYDIRYYIYELLKALDYCHSQGIMHRDVKPHNVMIDHELRKLRLIDWGLAEFYHPGKEYNVRVASRYFKGPELLVDLQDYDYSLDMWSLGCMFAGMIFRKEPFFYGHDNHDQLVKIAKVLGTDGLNAYLNKYRIELDPQLEALVGRHSRKPWLKFMNADNQHLVSPEAIDFLDKLLRYDHQERLTALEAMTHPYFQQVRAAENSRTRA", "soluble on expression in E. coli": "soluble"}, {"sequence": "AMARVGVLGAKGKVGATMVRAVAAADDLTLSAELDAGDPLSLLTDGNTEVVIDFTHPDVVMGNLEFLIDNGIHAVVGTTGFTAERFQQVESWLVAKPNTSVLIAPNFAIGAVLSMHFAKQAARFFDSAEVIELHHPHKADAPSGTAARTAKLIAEARKGLPPNPDATSTSLPGARGADVDGIPVHAVRLAGLVAHQEVLFGTEGETLTIRHDSLDRTSFVPGVLLAVRRIAERPGLTVGLEPLLDLH", "soluble on expression in E. coli": "soluble"}, {"sequence": "MDHEIPVRIVDNQEYMKVVRSILEEGKEVPLVVTGNSMMPFLIDRRDQVLIKRIERPLKKGDIAFFQRENGQYIMHRIHFMRKDDRTGENQFYFIGDGQKNIEGPIKETRIFGVITGVLRKGKYLDEHTFTWRFFENIWRYVIPFRPLIIKIYSLFKR", "soluble on expression in E. coli": "not soluble"}, {"sequence": "MGSDKIHHHHHHENLYFQGAVDLDREGRDPAYVESIVKRSQKIVDKLELTDTVAAREVTTIIANRYFKLNDIYETRDAKVKLAKETLTGDAKQEAVKAAEAEKDAALYRTHFAFPADLSLYLDAKQIDAVKDGMTYGVVMVTYKATVDMIPTLKEEEKAQIMAWLVEAREFAMDAENSNKKHAAFGKYKGRINNYLSKRGYDLVKERKAWYERIKARGGKI", "soluble on expression in E. coli": "soluble"}, {"sequence": "INDPAKSAAPYHDEFPLFRSANMASPDKLSTGIGFHSFRIPAVVRTTTGRILAFAEGRRHTNQDFGDINLVYKRTKTTANNGASPSDWEPLREVVGSGAGTWGNPTPVVDDDNTIYLFLSWNGATYSQNGKDVLPDGTVTKKIDSTWEGRRHLYLTESRDDGNTWSKPVDLTKELTPDGWAWDAVGPGNGIRLTTGELVIPAMGRNIIGRGAPGNRTWSVQRLSGAGAEGTIVQTPDGKLYRNDRPSQKGYRMVARGTLEGFGAFAPDAGLPDPACQGSVLRYNSDAPARTIFLNSASGTSRRAMRVRISYDADAKKFNYGRKLEDAKVSGAGHEGGYSSMTKTGDYKIGALVESDFFNDGTGKNSYRAIIWRRFNLSWILNGPNN", "soluble on expression in E. coli": "soluble"}, {"sequence": "MGSDKIHHHHHHESGDIITSDQMDEVDPVAGLNGMYAYLYKFDTMGYGDEAQHYDYGYHHILLCSDLWGQDMIQYSSKYGWYYTDYQFNQNSRAYQYISTFYFWNYLYKLIKSANDVLKTTTDDSKKEDRGQALGMRAFAYLTLVQMYQHTYAGHENAPAVPIVLETTEPDVLSNNPRASVKEVYDLIEKDLVQAHSDLSSYQRLNSTYIDQTVISGLLARMYLLKEDWTNAAKYAKEARASYGAPADKAELIDEGYIDMNKHHTWMFTSHITTDAEIVQTGIVNFISHISSTAYGYVTAGGMFKNISSELYSKIADNDIRKGWFADKDFTYEGGPMGSVALPKYANLKYMWYDLEGNNCNDLCYMRAEEMWLIEAEALAMGGNIAGGKSLLEEFVKTRQPDYVCDATDAKGIQDACWLQRRIEFWGEGIAWFDLKRLKKPIIRKYEGTNHNLDAQYDFPAEDDIFRILIPRKEIQDNNGIGEEDNNPMPNI", "soluble on expression in E. coli": "not soluble"}, {"sequence": "MEGNFSNRVQDVIRLSREEALRLGHDYIGTEHLLLGLIREGEGIGAKILKNLKVDLFQLKQKIEENTHPKVPATQMGNVPLTKQAEKVLKITYLEAKICKSTIIGTEHLLLSILKGDDNIAAQILEQFGVTYDQVRDELMTITT", "soluble on expression in E. coli": "not soluble"}, {"sequence": "MRANLGVPSTIAQSRWAESATSFPTATVAAAGGKDIEIERDVAHNQPGGIFPNVIFLESLDFSACFVDAHQVFVSDGSVMFRRWDRQKKTGRKK", "soluble on expression in E. coli": "not soluble"}, {"sequence": "MKQEVEKWRPFKHPDGDVRDLSFLDAHQVIYVQHHEDKEPLEYRFWVTYSLHCFTKDYEHQTNEEKLSLMYHAPKESRPFCQHRYNLARTHLKRTILALPESNVIHAGYGSYAVIEVDLDGGDKAFYFVVFRAFSEIFHHCLKLIEK", "soluble on expression in E. coli": "not soluble"}, {"sequence": "MILNPQKLSVDFGNGITATEPIIPRRYTLTHSDITAKLFLNIGLTYAYNKMTTMRDEVLGEWVKKSQDYSYQVFLHVDGRLGPKTTAIRNKIFRRELPLALEAIRYGDKRFFNAHPYLDNAPITVFFISTNPNFNKIENWGTFSDYNIESYYRNLEHHHHHH", "soluble on expression in E. coli": "soluble"}, {"sequence": "MTLGTALKQARKAQQLNQKQAARGICAQSMLSAIENDRYVPNARLLLALCQRLGVAVSTLSLADDFEISAEQAFNDRVRQMCNAHQYQQLKDWLLQPTTLEHVQTDEQTQAYYYYLGVACWQVDRTSDAAQQNLRLAIGMAAPSSPPTTLTRLALISLAVVKAHHHPQAPVAALVTRALADIDAGAYEENANIVFYLAGLVAYEQHDSQLAVARLTQGLAFATTHDSHYMLANIYQLMAQLAMAAGETATAQVASQRSQVFKDLFKEQINDRL", "soluble on expression in E. coli": "not soluble"}, {"sequence": "GERQVYRKIRDRASYAFALISVAAVVRMEEGRIATARLAFGGLAHKPWRDPEVEACLEGETPSDDLFDRAADRLLQSARGQGENDFKIPLTRRALTAALREATG", "soluble on expression in E. coli": "not soluble"}, {"sequence": "GANPTTAETLDATRRVDDATVAIRCAINNLIVELIRGTGSYNRSSFESSSGLVWTSGPAGEGSYSITTPSQFVFLSSAWADPIELINLCTNALGNQFQTQQARTVVQRQFSEVWKPSPQVTVRFPDSDFKVYRYNAVLDPLVTALLGAFDTRNRIIEVENQ", "soluble on expression in E. coli": "soluble"}, {"sequence": "MKERLEHYSTSSIYSGFEVYLPLVLQTITDVIIAENIKSKKETGFKLYEHFTSRIKSEASMIEKCQRKQLPLTSKSALKIIKDSIGIRIICGFIDDIYRMVDLLKSIPGMSVNTEKDYILNAKPNGYRSYHLILELETHFPDILGEKKGCYFIEVQLRTIAQDSWASLEHQMKYKHQVANAEMITRELKRCADELASCDVTMQTIRQLIQETTEEE", "soluble on expression in E. coli": "not soluble"}, {"sequence": "MAHHHHHHMMDMRQLDVSAVARSAMSCMEAKHMSANVKLYTLGFLTFLASSKSWQPYRMSHPDKVEEQALYEDSELASSFISTKYPAGWQQNASEVLNTKFPGLLGEVTAHLSLGGKDTISALPRRHDGR", "soluble on expression in E. coli": "not soluble"}, {"sequence": "MAHHHHHHMGGCVVSVMAKRNAAQVMPDPRAEALERRRAQCGGNFVQRVPGTESEHASAIYRIAGVTAEQHEAILAAAAARPTFYTTLMRHCAERTDQRVLGYRPVKCVTKEPAPSKSSGSTSEPAKKERLMSITHFDEVVHVTYSEMEERIFHFGAGLAALGVTANGNVSIYLDTCVEWLIGIYGIWSCSAVAATVYANLGEAALAHALHETESQAILCGSVNVANVLKLMKNGVMPQVPIIHVGALPASLDTHGVQVVSFKQVEMIGAAHLEGGAAKGTGPLNDDDLALIMYTSGTTGDPKGVMHTHRTLAAGLHTLEPRVIDLLGQPRPDDVYLSYLPMAHIMEFTITNLFIFRGAFIGFGTPRTLTDTTARPHGDLLTFNPSMLAGVPRIFDTLKKAVEAKLPPVGTLKRQVFDHAYQSRLAAMKEGKDTPFWNEKVFAAPRAVLGSRLRIMLSGGGPLSAATHEFVNVVFGRVVIGYGLTETICVGAIQIPGDTETNVTGLMEPGQEIKLLDIDEYKHTDTPEPRGEMLSRGPYLFKGYYKQPELTREVLDEDGWFHTGDVGSFTADGKMRIVGRVKALAKNCLGEYIALEALEAVYSSNELLQPNGVCVLVHPDKPYITALALTDEARATSFAAKHGIEGTYPALLKDQRFQQAAAISMADTARASNRASFECVKRVRVIDDEWTPENEILTAAQKLKRRVIDAQYAQTIAELFADD", "soluble on expression in E. coli": "not soluble"}, {"sequence": "MNGASPAHSLVSTTAVAGGGGSSGAAAGLDDFHFPPDIPSMQERKDEAMRVLKADLMTELDKEVKSLEEDSWMFEGPRSRIHLISRRGNFLKKGGEVKLW", "soluble on expression in E. coli": "not soluble"}, {"sequence": "MMPKVYGSLVDNETRCTHYHTFLDVIAIKFKCCNKYYPCYQCHEEHETHPIKRWSEQEFDEKAIMCGVCKHEMSIQDYMMTELCPKCQAHFNSRCKFHYHLYFELLEHHHHHH", "soluble on expression in E. coli": "not soluble"}, {"sequence": "MVESLKHTAAAAIAKLIHNGHFNSKSYAFDQESSNEVYAQLLRLDPQWSYNIDLKLKGLSFILTKVNFENVEMGPQTFGLLTQHNLKSLVLGNQDEIPSLEHYMSRLFRTSQIDHLDLSGRSQFSTAWLKTTGQQLPLLRTLNVSGVKLLNPDFFQFCKSFPNLYSLDISNCGVTILTGISRLKNLRHLSLRSLIYESWYDIRELFALKLLNVLDLSMHSTHHARRNMQRFLDCKQVLPELRFLECSGNLMDEDMLEELLITHSHLHQLAIVDCDVKAPKSSPIRILSCTTFDSSITALKYYLNLKRRNEVQICFQELRLHVKRLHERKMQYDVTECVTLSLQSLEKLPCSLIMNFDIVEERLFTSRLSFEADFLAEIVLHNFHRLSRVHTRLICDILLNNVNRQLIRDLRAETMWNAIIYLFNMGVFVDKQKLKGIASHCAASLHNGDPIIEEQAMRILTSCVTGKTLELVLSITESKHDTTPICLGFLRAALHKEDEQSSRRVAEKILAATHNNEEECKRYIKHGAMNMLISAIDRFDSEPMHIVILGIIRNLVMMSPYDKVQQIFTCVQFRTFQILLRNWTSSDRAYLMLSIFALRLNHQDKNFECVFRKCADELLRKHFPYLLATEITVDVDIYFDRGIVQNILRTSEEVGLVLWALLTIKIYAQKSLWNSRSIRDSNFFYLIENPHIASEVVNVASENVRFLFHW", "soluble on expression in E. coli": "not soluble"}, {"sequence": "MSSDSDSDFGKEASKTPKRRITDCLFDSDDEVLESPGREELRKLLLSDYEDVGSVTIDTPKLKNRNVRLRGAGRPQKGGDDYKDYGRSEMEQFLRLVSDKPFLWHTKDSDFHRKKEKGMPAWAEIERTCNTFMGKGRTPGKTAAALFKKMATTYKSHLTRIQKAPSGSAVTPKKDLFCYAELMSFMDEDITHRAPTCSFIVGAGPDVDVLPTETSSSKKK", "soluble on expression in E. coli": "not soluble"}, {"sequence": "MSLKIVDATVLVTCPGRNFVTLRITTDEGVTGLGDATLNGREQAVVAYLREHVVPLLLGTDPHRIEDTWQSLYRGAYWRRGPVTMAAIAAVDVALWDIKAKVANLPLYQLLGGASRERVRTYGHANGRDIPELLDSVRARQAEGYQAIRVQTGVPGLRKVYGVHTGEAIAHNPTRLDQRAVPVVEDWDTPAYLRHLPTVLEAVRNEFGPELPLLHDAHHRLTPLQAAKLGKDVERYDLFWLEDCTPAENQEAFRLVRHHTTTPLAVGEVFNTVFDYQTLIAEQLIDYARSAVTHFGGVSALRKLFDFAAQHQVKSAIHGPEDISPVGMAAAIHLDLAVHNFGIQEYSGHTDATNEVFRHAYTFTDGHLHPGEAPGIGVDYDEELAAAHPYDPAYLPVNRLADGTVHDWEGHHHHHH", "soluble on expression in E. coli": "not soluble"}]}]}
